{"source": "patent US20120010178A1", "about": "“METHODS AND COMPOUNDS FOR TREATMENT OF NEURODEGENERATIVE DISORDERS” (PRESIDENT AND FELLOWS OF HARVARD COLLEGE, priority 2008, published 2012)", "molecules": {"B1": {"name": "BMP4: bone morphogenetic protein 4, BMP/TGFβ ligand (protein, UniProt P12644 293-408, looked up)", "Bone morphogenetic protein 4": "SPKHHSQRARKKNKNCRRHSLYVDFSDVGWNDWIVAPPGYQAFYCHGDCPFPLADHLNSTNHAIVQTLVNSVNSSIPKACCVPTELSAISMLYLDEYDKVVLKNYQEMVVEGCGCR"}}, "tested_on": "SMN", "test": "SMN levels in mouse (ES-cell derived) motor neurons", "format": "cell-based", "conditions": "mouse motor neurons", "description": "Mouse HB9-GFP derived SMN deficient motor neuron cells were incubated for 2 days with compounds from libraries and collections.\nMotor neurons were produced from mouse ES-cells expressing cherry fluorescent protein (CFP) under the control of the motor neuron-selective Hb9 promoter, as previously described (Wichterle et al., 2002).\nGFP expressing motor neurons were derived from mouse ES cells as described below. After growing for approximately 1 week, motor neurons were treated with allsterpaullone. Two days after treatment with allsterpaullone, cells were fixed and stained with SMN antibody or GFP antibody.\nmES cells were differentiated into motor neurons according to methods adapted from Wichterle et. al., Cell (2002), 110:385-397. Briefly, mES cells were grown to 70-80% confluence in 10-cm plates (Falcon) in ES cell medium. To form embryoid bodies, cells were washed once with PBS to eliminate mES medium and then incubated with 1 ml of 0.25% trypsin (GIBCO) for 5-10 min at 21-25° C. (RT). Cells were then resuspended in 10 ml of DM1 medium (DMEM-F12, GIBCO), 10% knockout serum (GIBCO), penicillin, streptomycin, glutamine (GIBCO) and 2-mercaptoethanol (GIBCO), counted and plated at a concentration of 200,000 cells per ml in Petri dishes (Falcon). […] The cells were counted and plated on poly-ornithine coated 96-well plates (VWR)."}
{"molecule": "B1", "values": [{"measurement": "SMN levels in motor neurons (in words)", "result": "increase SMN levels"}]}
